The text below walks through data of article doi:10.1101/2025.09.11.675649.

For the test, the target named is Amuc1033^6S-GlcNAc (Akkermansia muciniphila) (UniProt B2UQX4). In words: SEC-MALS.

As to “Amuc1033^6S-GlcNAc (from UniProt B2UQX4 1-581) (enzyme)”, the stoichiometry N was 2.
